# In patent publication US6391608:
# Tested on: PleI restriction endonuclease (Pseudomonas lemoignei)
# Experiment: cleavage_in_vitro
# Conditions: approximate yield of recombinant PleI; five of six clones active; recognition site not given
substance,measurement,value
DNA substrate with PleI sites (sequence not stated),activity (units/gram of cells),100000
